# According to paper PMC11969024, “Development of chemokine network inhibitors using combinatorial saturation mutagenesis” (Communications Biology, 2025):
# B1: peptide HD2 (from tick evasin EVA4) / CCL1 (biotinylated, synthetic) (parent)
# chain 1: EEDDYTAYAPLTCYFT
# chain 2: KSMQVPFSRCCFSFAEQEIPLRAILCYRNTSSICSNEGLIFKLKRGKEACALDTVGWVQRHRKMLRHCPSKRK
# B2: peptide HD2 (from tick evasin EVA4) / CXCL14 (biotinylated, synthetic) (parent)
# chain 1: EEDDYTAYAPLTCYFT
# chain 2: SKCKCSRKGPKIRYSDVKKLEMKPKYPHCEEKMVIITTKSVSRYRGQEHCLHPKLQSTKRFIKWYNAWNEKRRVYEE
# B3: peptide HD2 (from tick evasin EVA4) / CCL8 (biotinylated, synthetic) (parent)
# chain 1: EEDDYTAYAPLTCYFT
# chain 2: QPDSVSIPITCCFNVINRKIPIQRLESYTRITNIQCPKEAVIFKTKRGKEVCADPKERWVRDSMKHLDQIFQNLKP
# Variants of: B1
# Conditions: with CCL1 (biotinylated, synthetic); scale: log2
row,Variant,enrichment
1,chain 1 EEDDYTAYAPLTCNFT [chain 1 Y14N],-6.13
2,chain 1 EEDDYTAYAPLTCGFT [chain 1 Y14G],-9.73
3,chain 1 EEDDYTAYAPLTCEFT [chain 1 Y14E],-7.99
4,chain 1 EEDDYTAYAPLTCPFT [chain 1 Y14P],-8.08
5,chain 1 EEDDYTAYAPLTCKFT [chain 1 Y14K],-7.4
6,chain 1 EEDDYTAYAPLTCDFT [chain 1 Y14D],-6.76
7,chain 1 EKDDYTAYAPLTCYFT [chain 1 E2K],-4.38
8,chain 1 ECDDYTAYAPLTCYFT [chain 1 E2C],-9.24
9,chain 1 EEDDYTCYAPLTCYFT [chain 1 A7C],-9.07
10,chain 1 EEDTYTAYAPLTCYFT [chain 1 D4T],-7.11
11,chain 1 EEDKYTAYAPLTCYFT [chain 1 D4K],-6.11
12,chain 1 EEDRYTAYAPLTCYFT [chain 1 D4R],-6.32
13,chain 1 EEDVYTAYAPLTCYFT [chain 1 D4V],-9.08
14,chain 1 EEDGYTAYAPLTCYFT [chain 1 D4G],-5.45
15,chain 1 EEDCYTAYAPLTCYFT [chain 1 D4C],-8.47
16,chain 1 EEDQYTAYAPLTCYFT [chain 1 D4Q],-5.71
17,chain 1 EECDYTAYAPLTCYFT [chain 1 D3C],-9.13
18,chain 1 EERDYTAYAPLTCYFT [chain 1 D3R],-6.68
19,chain 1 EEKDYTAYAPLTCYFT [chain 1 D3K],-4.59
20,chain 1 EEDDMTAYAPLTCYFT [chain 1 Y5M],-6.87
21,chain 1 EEDDKTAYAPLTCYFT [chain 1 Y5K],-4.83
22,chain 1 EEDDDTAYAPLTCYFT [chain 1 Y5D],-6.28

row,Variant,enrichment
1,chain 1 EEDDSTAYAPLTCYFT [chain 1 Y5S],-8.33
2,chain 1 EEDDGTAYAPLTCYFT [chain 1 Y5G],-6.34
3,chain 1 EEDDVTAYAPLTCYFT [chain 1 Y5V],-8.5
4,chain 1 EEDDATAYAPLTCYFT [chain 1 Y5A],-6.3
5,chain 1 EEDDETAYAPLTCYFT [chain 1 Y5E],-2.71
6,chain 1 EEDDPTAYAPLTCYFT [chain 1 Y5P],-5.96
7,chain 1 EEDDTTAYAPLTCYFT [chain 1 Y5T],-6.9
8,chain 1 EEDDHTAYAPLTCYFT [chain 1 Y5H],-6.55
9,chain 1 EEDDCTAYAPLTCYFT [chain 1 Y5C],-8.4
10,chain 1 EEDDRTAYAPLTCYFT [chain 1 Y5R],-6.28
11,chain 1 EEDDQTAYAPLTCYFT [chain 1 Y5Q],-4.59
12,chain 1 EEDDYTAYAPETCYFT [chain 1 L11E],-7.4
13,chain 1 EEDDYTAYAPNTCYFT [chain 1 L11N],-7.68
14,chain 1 EEDDYTAYAPPTCYFT [chain 1 L11P],-7.33
15,chain 1 EEDDYTAYAPLTHYFT [chain 1 C13H],-7.88
16,chain 1 EEDDYTAYAPLTKYFT [chain 1 C13K],-8.35
17,chain 1 EEDDYTAYAPLTIYFT [chain 1 C13I],-7.4
18,chain 1 EEDDYTAYAPLTLYFT [chain 1 C13L],-10.5
19,chain 1 EEDDYTAYAYLTCYFT [chain 1 P10Y],-7.79
20,chain 1 EEDDYTAYANLTCYFT [chain 1 P10N],-7.25
21,chain 1 EEDDYTAYACLTCYFT [chain 1 P10C],-8.95
22,chain 1 EEDDYTAYAILTCYFT [chain 1 P10I],-7.67

row,Variant,enrichment
1,chain 1 EEDDYTAYASLTCYFT [chain 1 P10S],-8.42
2,chain 1 EEDDYTAYATLTCYFT [chain 1 P10T],-7.09
3,chain 1 EEDDYTAYARLTCYFT [chain 1 P10R],-8.31
4,chain 1 EEDDYTAYAFLTCYFT [chain 1 P10F],-8.64
5,chain 1 EEDDYTAYAHLTCYFT [chain 1 P10H],-7.18
6,chain 1 EEDDYTAYAKLTCYFT [chain 1 P10K],-6.19
7,chain 1 EEDDYTAGAPLTCYFT [chain 1 Y8G],-7.94
8,chain 1 EEDDYTAHAPLTCYFT [chain 1 Y8H],-6.8
9,chain 1 EEDDYTACAPLTCYFT [chain 1 Y8C],-8.91
10,chain 1 EEDDYTASAPLTCYFT [chain 1 Y8S],-8.97
11,chain 1 EEDDYTARAPLTCYFT [chain 1 Y8R],-7.41
12,chain 1 EEDDYTAKAPLTCYFT [chain 1 Y8K],-5.3
13,chain 1 EEDDYTATAPLTCYFT [chain 1 Y8T],-7.71
14,chain 1 EEDDYTAQAPLTCYFT [chain 1 Y8Q],-5.59
15,chain 1 EEDDYTAEAPLTCYFT [chain 1 Y8E],-5.41
16,chain 1 EEDDYTANAPLTCYFT [chain 1 Y8N],-7.36
17,chain 1 EEDDYTAYHPLTCYFT [chain 1 A9H],-7.44
18,chain 1 EEDDYTAYDPLTCYFT [chain 1 A9D],-7.46
19,chain 1 EEDDYTAYCPLTCYFT [chain 1 A9C],-9.32
20,chain 1 EEDDYTAYKPLTCYFT [chain 1 A9K],-5.86
21,chain 1 CEDDYTAYAPLTCYFT [chain 1 E1C],-8.98

# Variants of: B2
# Conditions: with CXCL14 (biotinylated, synthetic); scale: log2
row,Variant,enrichment
1,chain 1 EEDDYTAYAPLTCYKT [chain 1 F15K],-5.27
2,chain 1 EEDDYTAYAPLTCYTT [chain 1 F15T],-5.59
3,chain 1 EEDDYTAYAPLTIYFT [chain 1 C13I],-6.44
4,chain 1 EEDDYTAYAPLTLYFT [chain 1 C13L],-9.57
5,chain 1 EEDDETAYAPLTCYFT [chain 1 Y5E],-1.74
6,chain 1 EEDDQTAYAPLTCYFT [chain 1 Y5Q],-3.62
7,chain 1 EEMDYTAYAPLTCYFT [chain 1 D3M],-6.1
8,chain 1 EERDYTAYAPLTCYFT [chain 1 D3R],-5.71
9,chain 1 EECDYTAYAPLTCYFT [chain 1 D3C],-8.16
10,chain 1 EESDYTAYAPLTCYFT [chain 1 D3S],-7.81
11,chain 1 EEDDYTAYANLTCYFT [chain 1 P10N],-6.28
12,chain 1 EEDDYTAYCPLTCYFT [chain 1 A9C],-8.35
13,chain 1 PEDDYTAYAPLTCYFT [chain 1 E1P],-5.8
14,chain 1 CEDDYTAYAPLTCYFT [chain 1 E1C],-8.01
15,chain 1 KEDDYTAYAPLTCYFT [chain 1 E1K],-4.33
16,chain 1 MEDDYTAYAPLTCYFT [chain 1 E1M],-5.07
17,chain 1 EEDDYTCYAPLTCYFT [chain 1 A7C],-8.1
18,chain 1 EEDDYTATAPLTCYFT [chain 1 Y8T],-6.74
19,chain 1 EEDDYTASAPLTCYFT [chain 1 Y8S],-8.01
20,chain 1 EEDDYTAYAPLTCNFT [chain 1 Y14N],-5.16
21,chain 1 EEDDYTAYAPLTCTFT [chain 1 Y14T],-7.2
22,chain 1 EEDDYTAYAPLTCSFT [chain 1 Y14S],-7.93

# Variants of: B3
# Conditions: with CCL8 (biotinylated, synthetic); scale: log2
row,Variant,enrichment
1,chain 1 Y5K,-5.12
2,chain 1 Y5Q,-4.88
3,chain 1 Y5R,-6.57
4,chain 1 C13P,-9.12
5,chain 1 L11P,-7.62
6,chain 1 Y8Q,-5.88
7,chain 1 Y8P,-7.38
8,chain 1 Y8G,-8.23
9,chain 1 Y8K,-5.59
10,chain 1 Y8E,-5.7
11,chain 1 A9P,-7.32
